# Measurements published in PMC12520543, “An Apple Susceptibility‐Related LRR Receptor‐Like Kinase MdRLKT21 Activates Plant Immunity by Hijacking a Trans‐Kingdom Fungal microRNA‐Like RNA” (Advanced Science, 2025).
# B1: GST-MdRLKT21-KD (domain or fragment)
# chain: RVRSRAKEGKTGKEKVVKEVAEVVVVEEGEGQNGKFVVLDEGFGLDLEDLLRASAYVVGKSRSGITYRVVAGSGGKGPGAAPSVVAVRRLSEGDATWRLKEFEAEVEAIGKVVHPNIVRLRAYYYASDEKLLVTDFIRNGSLYNALHGGPSNSLPPLPWTARLKIAQGTARGLMYIHEHSTRKYVHGNIKSTKILLNDDLQPYISGFGLARLMLGTSKFTTSASRRQNSNESIVASGLVVPTSSTIYLAPEARISRSKFTQKCDVYSFGIVLLEILTGRLPDEGLENGGKGLESLVRKTFRDERPLSEIIDPALLQEVYAKKQVVEAFHIALNCTELDPELRPRMKTVSESLDRLKLQC
# Target: T1, GST-MdRFP1-His (apple (M. domestica), labeled with the Monolith NT Protein Labeling Kit RED)
# T1 construct: MdRFP1, apple C3HC4-type RING finger protein 1, GenBank XP_017184215.2; Vector pGEX-6P-1; The results name GST-MdRFP1-His for the MST; the MST methods say only 'MdRFP1 was purified and labeled'; also called labeled MdRFP1; source: E. coli BL21 (DE3), purified (glutathione agarose and HisPur Ni-NTA resin are named for the set of recombinant proteins); not shown: GST, N-terminal, kept; His, …
# Assay: MST; labeled MdRFP1 (Monolith NT Protein Labeling Kit RED) incubated with a gradient dilution of MdRLKT21-KD for 30 min at RT; standard treated capillaries; Monolith NT.115
# Details: both partners purified
# T1 sequence (main, as listed by the source): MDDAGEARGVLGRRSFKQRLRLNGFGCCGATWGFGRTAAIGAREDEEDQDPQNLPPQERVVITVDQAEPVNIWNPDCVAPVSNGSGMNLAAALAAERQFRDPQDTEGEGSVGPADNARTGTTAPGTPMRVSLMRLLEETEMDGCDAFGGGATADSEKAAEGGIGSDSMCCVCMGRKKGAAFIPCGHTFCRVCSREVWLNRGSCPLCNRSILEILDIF
binder,measurement,value
B1,Kd,14 ± 4.24 nM
